From PMC7060279 come the findings set out here.

Experiment [1] concerns the target integrin αvβ3 protein (UniProt P06756).
Experiment [2] shares this target. The experiment in a line: SPR; Biacore T-200; TLR2, TLR4 and integrin αvβ3 immobilised on a CM5 chip by amine coupling; CCN1 as analyte at 25 µl per min, 25 °C, phosphate buffer with 350 mM NaCl, 0.5 mM CaCl2, 0.5 mM MgCl2, 10 µg per ml BSA; global fit to 1:1 Langmuir model, KD = kd/ka.

Chain of integrin αvβ3 protein (P06756 31-1048, chain 1 of 2): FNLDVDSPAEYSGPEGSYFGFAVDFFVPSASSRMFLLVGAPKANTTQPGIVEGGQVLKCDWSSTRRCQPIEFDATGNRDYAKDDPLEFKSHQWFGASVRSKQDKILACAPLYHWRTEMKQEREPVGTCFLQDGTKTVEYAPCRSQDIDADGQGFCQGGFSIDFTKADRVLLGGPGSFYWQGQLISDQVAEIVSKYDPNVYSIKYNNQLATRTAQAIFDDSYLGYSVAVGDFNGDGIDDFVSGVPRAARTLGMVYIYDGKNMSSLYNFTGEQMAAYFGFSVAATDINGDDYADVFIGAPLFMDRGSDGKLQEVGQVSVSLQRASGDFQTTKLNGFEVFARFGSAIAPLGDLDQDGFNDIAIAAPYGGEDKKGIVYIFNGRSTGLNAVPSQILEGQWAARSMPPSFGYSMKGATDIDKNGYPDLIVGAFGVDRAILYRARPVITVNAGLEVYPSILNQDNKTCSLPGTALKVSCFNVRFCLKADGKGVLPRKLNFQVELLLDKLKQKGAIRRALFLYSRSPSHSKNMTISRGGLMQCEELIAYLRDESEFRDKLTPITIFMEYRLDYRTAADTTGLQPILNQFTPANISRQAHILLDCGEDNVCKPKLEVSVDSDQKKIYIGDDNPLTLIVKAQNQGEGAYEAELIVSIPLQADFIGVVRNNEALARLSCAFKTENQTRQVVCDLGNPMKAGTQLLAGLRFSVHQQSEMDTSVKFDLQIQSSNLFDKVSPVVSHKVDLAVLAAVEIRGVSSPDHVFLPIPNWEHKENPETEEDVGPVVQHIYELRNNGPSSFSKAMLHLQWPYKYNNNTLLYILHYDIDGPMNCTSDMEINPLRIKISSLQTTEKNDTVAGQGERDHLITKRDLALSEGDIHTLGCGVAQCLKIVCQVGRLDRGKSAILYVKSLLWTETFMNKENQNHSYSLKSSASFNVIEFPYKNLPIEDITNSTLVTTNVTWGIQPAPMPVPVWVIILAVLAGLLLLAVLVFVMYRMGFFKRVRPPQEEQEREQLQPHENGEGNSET
Chain of integrin αvβ3 protein (P05106 27-718, chain 2 of 2, further chain): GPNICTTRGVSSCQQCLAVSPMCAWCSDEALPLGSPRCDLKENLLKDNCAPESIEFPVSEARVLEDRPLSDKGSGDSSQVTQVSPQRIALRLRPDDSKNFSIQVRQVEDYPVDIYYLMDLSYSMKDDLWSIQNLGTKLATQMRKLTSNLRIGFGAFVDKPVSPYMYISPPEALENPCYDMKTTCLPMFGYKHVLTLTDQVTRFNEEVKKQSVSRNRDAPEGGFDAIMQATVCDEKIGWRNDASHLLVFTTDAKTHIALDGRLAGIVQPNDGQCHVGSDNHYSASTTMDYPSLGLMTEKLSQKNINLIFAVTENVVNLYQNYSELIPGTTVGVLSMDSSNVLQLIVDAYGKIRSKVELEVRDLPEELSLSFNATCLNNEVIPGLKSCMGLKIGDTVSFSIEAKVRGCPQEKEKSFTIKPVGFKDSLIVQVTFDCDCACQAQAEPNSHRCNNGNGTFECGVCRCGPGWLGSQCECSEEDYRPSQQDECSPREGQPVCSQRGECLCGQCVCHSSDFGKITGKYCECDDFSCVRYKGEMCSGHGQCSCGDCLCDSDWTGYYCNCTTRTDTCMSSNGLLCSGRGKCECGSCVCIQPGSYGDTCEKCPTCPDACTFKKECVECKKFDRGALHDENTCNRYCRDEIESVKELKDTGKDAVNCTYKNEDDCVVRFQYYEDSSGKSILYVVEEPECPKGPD

B1: CCN1-WT (recombinant matricellular protein CCN1) (natural protein)
chain: TCPAACHCPLEAPKCAPGVGLVRDGCGCCKVCAKQLNEDCSKTQPCDHTKGLECNFGASSTALKGICRAQSEGRPCEYNSRIYQNGESFQPNCKHQCTCIDGAVGCIPLCPQELSLPNLGCPNPRLVKVSGQCCEEWVCDEDSIKDSLDDQDDLLGLDASEVELTRNNELIAIGKGSSLKRLPVFGTEPRVLFNPLHAHGQKCIVQTTSWSQCSKSCGTGISTRVTNDNPECRLVKETRICEVRPCGQPVYSSLKKGKKCSKTKKSPEPVRFTYAGCSSVKKYRPKYCGSCVDGRCCTPLQTRTVKMRFRCEDGEMFSKNVMMIQSCKCNYNCPHPNEASFRLYSLFNDIHKFRD
For the molecule B1, the phagocytosis of S. aureus bioparticles by BMDMs pretreated with CCN1 (2 µg per ml); obliterated by cilengitide (1 µM); also enhanced in BM-PMNs and THP.1 macrophages with integrin αvβ3 protein [1] was determined as 5 fold. In addition, the Kd – broadly, the concentration at which binding is half-saturated – with integrin αvβ3 protein [2] worked out at 0.202 µM.
